Laboratory results as given in PMC13082335, “Matrix plasticity and the molecular basis of extracellular filament assembly in Bacillus cereus” (Science Advances, 2026).

B1: N-domain(39-190)-His of CapP (domain or fragment)
chain: AAFIHETKVEATLSTAIIFPKTVNTLKEQSEKHKQFIEREYGTMKGKLKATSIEEIKQAISVWQQGREKIVAEKEALQNVYTEIEAPYNQIQEELKVNKDESMQQVSIYVNEGFRSIKEKRDYIEKEISLKAIDEQIQALQQQLNVAIEAEG
notes: CapP (BC1280) of Bacillus cereus ATCC14579, residues A39 to G190 (N-terminal domain); also called N-terminal domain; N-terminal construct; source: E. coli Lemo21 (DE3) pLysS, pET24b, purified under native conditions (HisTrap, Superdex 75 SEC); not shown: His6, C-terminal, kept

How the values were obtained:
[1] = target: CapP-His (full-length CapP, BC1280, with C-terminal polyhistidine tag) (Bacillus cereus ATCC14579) (UniProt Q81GC7); assay: native gel or EMSA; native PAGE (Any kD Mini-PROTEAN TGX), 25 mM tris, 192 mM glycine, 200 V, NativeMark marker, Coomassie; second SEC peak
[2] = target: the molecule itself; assay: as above

Molecule	stoichiometry N [1]	stoichiometry N [2]
CapP-His (full-length CapP, BC1280, with C-terminal polyhistidine tag) (from UniProt Q81GC7 1-279) (natural protein)	15	
B1		~15
